# Article PMC8080463
# Target: HGF (UniProt P14210;P14210 32-494;495-728)
# Assay: SPR
# HGF, sequence (P14210 32-494, chain 1 of 2): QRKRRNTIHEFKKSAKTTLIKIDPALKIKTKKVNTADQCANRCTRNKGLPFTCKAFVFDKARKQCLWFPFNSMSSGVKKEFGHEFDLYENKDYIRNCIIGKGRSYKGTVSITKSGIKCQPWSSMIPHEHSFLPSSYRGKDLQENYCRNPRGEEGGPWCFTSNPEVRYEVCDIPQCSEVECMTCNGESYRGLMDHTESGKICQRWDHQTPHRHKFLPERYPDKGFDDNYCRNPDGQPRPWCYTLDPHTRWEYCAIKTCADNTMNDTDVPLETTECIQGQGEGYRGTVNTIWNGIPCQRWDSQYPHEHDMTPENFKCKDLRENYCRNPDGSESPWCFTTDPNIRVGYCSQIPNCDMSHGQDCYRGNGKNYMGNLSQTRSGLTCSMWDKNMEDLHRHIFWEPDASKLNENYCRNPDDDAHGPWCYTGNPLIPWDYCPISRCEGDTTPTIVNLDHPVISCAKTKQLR
# HGF, sequence (P14210 495-728, chain 2 of 2): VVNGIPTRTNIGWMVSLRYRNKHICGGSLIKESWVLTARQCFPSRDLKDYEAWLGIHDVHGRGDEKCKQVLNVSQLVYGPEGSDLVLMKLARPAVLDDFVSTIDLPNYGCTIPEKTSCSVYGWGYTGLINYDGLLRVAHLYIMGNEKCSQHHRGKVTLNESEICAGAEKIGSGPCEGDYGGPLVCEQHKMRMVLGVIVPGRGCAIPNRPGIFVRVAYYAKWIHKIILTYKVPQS
row,Binder,binding result
1,GGGGATGGCGATGGGGAGCAGG (structured_DNA) [HGF-PQS3],no binding
2,GGAATAGGGAAGGTTAGCAGG (ssDNA) [HGF-PQS2],no binding

# Target: HB-EGF (UniProt Q99075 63-148)
# Assay: SPR
# HB-EGF, sequence (Q99075 63-148): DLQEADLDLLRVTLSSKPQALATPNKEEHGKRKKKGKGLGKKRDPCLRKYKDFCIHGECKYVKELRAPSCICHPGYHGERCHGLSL
row,Binder,binding result
1,GGCGCGCGGGGTCGGGCGGCCGCGCGGG (ssDNA) [HBEGF-PQS6],no binding
2,GGCGGGCGGCAGACGGTGCCCGG (ssDNA) [HBEGF-PQS7],no binding
3,GGGCGGCGGAGCTCAGG (ssDNA) [HBEGF-PQS4],no binding
4,GGCGGCCACTGGGCGCTGG (ssDNA) [HBEGF-PQS3],no binding
5,GGTCAGGGGTCTGGGCGGG (structured_DNA) [HBEGF-PQS12],no binding
6,GGAGGCGGCGAGG (structured_DNA) [HBEGF-PQS2],no binding
7,GGCCGGGAATAAGGCTCCAGG (ssDNA) [HBEGF-PQS5],no binding
8,GGAGCGGCTTCGGAGAGG (ssDNA) [HBEGF-PQS13],no binding
9,GGCACGGGCCACTTGGTGGGG (ssDNA) [HBEGF-PQS10],no binding
10,GGGAGGGTCCGGGTTGCTGG (structured_DNA) [HBEGF-PQS1],no binding
11,GGAGGCGGCCGG (ssDNA) [HBEGF-PQS14],no binding
12,GGACGGGCGTCGGCATCGG (ssDNA) [HBEGF-PQS11],no binding

# Target: bFGF (UniProt P09038 143-288)
# Sequence (P09038 143-288): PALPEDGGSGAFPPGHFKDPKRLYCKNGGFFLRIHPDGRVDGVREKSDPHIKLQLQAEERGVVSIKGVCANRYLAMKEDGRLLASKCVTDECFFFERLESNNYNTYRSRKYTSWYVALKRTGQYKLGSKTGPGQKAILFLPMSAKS
# Assay: SPR
row,Binder,binding result
1,GGGCAAGGCGGGCAGCGTGG (ssDNA) [bFGF-PQS14],no binding
2,GGAAAGGAGGGGG (ssDNA) [bFGF-PQS11],no binding
3,GGCCGCGGCAGGGCTTTGG (ssDNA) [bFGF-PQS18],no binding
4,GGGGGCGCGGGAGGCTGGTGGGTGTGGGGGG (ssDNA) [bFGF-PQS3],no binding
5,GGGCACGGCCCCGGCCCCGG (ssDNA) [bFGF-PQS15],no binding
6,GGCCGGGCGGGAAGG (ssDNA) [bFGF-PQS13],no binding
7,GGGAGGCTGGGGGGCCGGGGCCGGGG (ssDNA) [bFGF-PQS5],no binding
8,GGGGGCGGGGGAGAGGCGAGGGGCGGGGGG (ssDNA) [bFGF-PQS17],no binding
9,GGGAGGAGGGTGCAGGCTGGAGG (ssDNA) [bFGF-PQS12],no binding
10,GGCTCGAGGCTGGGGGACCGCGG (ssDNA) [bFGF-PQS4],no binding
11,GGTTTCTGGCCGCGCGGCCCTCGG (ssDNA) [bFGF-PQS8],no binding
12,GGGGGCGGCGCGCAGGAGGGAGG (ssDNA) [bFGF-PQS2],no binding
13,GGAGCGGGTCGGAGG (ssDNA) [bFGF-PQS6],no binding
14,GGGCCGGGGGTACTGGTTTACAGG (ssDNA) [bFGF-PQS10],no binding
15,GGGGTTGGGCGGGGGTGACTTTTGGGGGATAAGGGG (ssDNA) [bFGF-PQS1],no binding
16,GGCTGCGGCGTAGGCCCGGG (ssDNA) [bFGF-PQS9],no binding
17,GGGCCGGGGCCGGGGGACGG (ssDNA) [bFGF-PQS7],no binding
18,GGCGAGCCGGCGGCCCGGGACCTGGG (ssDNA) [bFGF-PQS16],no binding

# Target: ApoE4 (UniProt P02649 19-317, C130R)
# Sequence (P02649 19-317 C130R): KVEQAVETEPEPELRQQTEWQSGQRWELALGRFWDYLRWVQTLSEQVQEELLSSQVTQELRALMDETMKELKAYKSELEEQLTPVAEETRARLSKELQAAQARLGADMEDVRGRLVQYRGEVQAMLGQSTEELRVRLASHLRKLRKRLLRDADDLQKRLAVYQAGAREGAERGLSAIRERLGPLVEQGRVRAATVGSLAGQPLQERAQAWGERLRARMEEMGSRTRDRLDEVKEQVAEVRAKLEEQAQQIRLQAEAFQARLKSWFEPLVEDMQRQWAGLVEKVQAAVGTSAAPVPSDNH
# Assay: SPR
Binder,Kd,binding result
GGTGGCGGAGG (structured_DNA) [ApoE4-PQS1],60 nM,–
GGATGGAGGAGATGGGCAGCCGG (structured_DNA) [ApoE4-PQS5],–,no binding
GGACGAGGTGAAGGAGCAGG (structured_DNA) [ApoE4-PQS6],–,no binding
GGCCCGGCTGGGCGCGG (structured_DNA) [ApoE4-PQS2],–,no binding
GGAGCGGGCCCAGGCCTGGG (structured_DNA) [ApoE4-PQS4],–,no binding
GGCCCCTGGTGGAACAGGG (structured_DNA) [ApoE4-PQS3],–,no binding
GGCTGGTGGAGAAGGTGCAGG (structured_DNA) [ApoE4-PQS7],–,no binding
GGGCTGGGATGGGGCGGG (structured_DNA) [ApoE4-PQS8],–,no binding

# Target: aFGF (UniProt P05230 16-155)
# Sequence (P05230 16-155): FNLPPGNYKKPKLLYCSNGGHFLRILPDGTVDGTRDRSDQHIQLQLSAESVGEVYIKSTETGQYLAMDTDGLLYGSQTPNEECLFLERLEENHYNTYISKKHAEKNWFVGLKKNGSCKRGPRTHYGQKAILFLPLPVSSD
# Assay: SPR
row,Binder,binding result
1,GGGCTTGGCTCTGGGGATGG (ssDNA) [aFGF-PQS11],no binding
2,GGCTAGAAGGTGGGGAATAAGG (ssDNA) [aFGF-PQS10],no binding
3,GGTTGGGACTGGCGAGG (ssDNA) [aFGF-PQS8],no binding
4,GGTGGAGGAAAGG (ssDNA) [aFGF-PQS19],no binding
5,GGAGACGGTAGGGCAAAGTGG (ssDNA) [aFGF-PQS3],no binding
6,GGTGGGGGGGG (ssDNA) [aFGF-PQS7],no binding
7,GGGAGGTTAGGGTTGG (ssDNA) [aFGF-PQS18],no binding
8,GGCCTGCAGGACTCTGGGAGG (ssDNA) [aFGF-PQS15],no binding
9,GGTGGGTGGGTATGG (ssDNA) [aFGF-PQS4],no binding
10,GGAGAGGGTAGAGTGGGATGGG (ssDNA) [aFGF-PQS2],no binding
11,GGTCCCAGGCCTGGGAGGG (ssDNA) [aFGF-PQS21],no binding
12,GGGAAGGAGGGAGGAAGGGAGGGAGGG (ssDNA) [aFGF-PQS20],no binding
13,GGAAATGAGGCAGAGGGGGAGTAAGG (ssDNA) [aFGF-PQS17],no binding
14,GGATGGGACAAGGGACAGG (ssDNA) [aFGF-PQS22],no binding
15,GGGAGAGGGACGGGCCGTGG (ssDNA) [aFGF-PQS6],no binding
16,GGGCTGGAGGGGGCAGG (ssDNA) [aFGF-PQS14],no binding
17,GGGCAAAGGTCCTAGGGTGGGGG (ssDNA) [aFGF-PQS16],no binding
18,GGCACTGGAGGAATGG (ssDNA) [aFGF-PQS5],no binding
19,GGGTGGTGTGGGAGTGG (ssDNA) [aFGF-PQS12],no binding
20,GGCCAGGACAGGGTAAGG (ssDNA) [aFGF-PQS9],no binding
21,GGCATGGTATCTGGAGGCAGG (ssDNA) [aFGF-PQS13],no binding
22,GGAGAACAGGAAGGCGGGGGTGAGGG (ssDNA) [aFGF-PQS1],no binding
23,GGTGGGAGGAAGG (ssDNA) [aFGF-PQS23],no binding
